This experiment addresses histone chaperone Anti-silencing factor 1 (Asf1) (Saccharomyces cerevisiae S288c). The experiment can be described thus: crystal structure.

The source of these data is paper PMC5800945 (Journal of molecular biology, 2017).

Positions count from the first letter of the chain named.

Sequence of histone chaperone Anti-silencing factor 1 (Asf1) (Saccharomyces cerevisiae S288c) (P32447 2-154): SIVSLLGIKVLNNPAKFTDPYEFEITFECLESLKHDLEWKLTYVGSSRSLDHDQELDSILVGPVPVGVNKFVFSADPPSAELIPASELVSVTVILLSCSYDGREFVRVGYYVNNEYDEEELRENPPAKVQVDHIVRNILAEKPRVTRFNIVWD

B1: Fab1H (anti-Asf1 Fab, wild-type switch region) (Fab, V domains shown)
VH: EVQLVESGGGLVQPGGSLRLSCAASGFNVSYSSIHWVRQAPGKGLEWVAYIYPSSGYTSYADSVKGRFTISADTSKNTAYLQMNSLRAEDTAVYYCARSYSTKLAMDYWGQGTLVTVSS
VL: DIQMTQSPSSLSASVGDRVTITCRASQSVSSAVAWYQQKPGKAPKLLIYSASSLYSGVPSRFSGSRSGTDFTLTISSLQPEDFATYYCQQSQWYPITFGQGTKVEIK
With B1, the binding result is reported as “binds”.

B2: Fab1H-FNQIKG (Fab, V domains shown)
VH: B1 VH with S118F, S119N
VL: B1 VL
With B2, the binding result was “binds”.

B3: Fab1H-VSRRLP (Fab, V domains shown)
VH: B1 VH with S118V
VL: B1 VL
As to B3, the binding result is given as “binds”.
